This note sets out measurements from patent publication US10907134B2, “Mutated genes for the catalytic protein of oplophorus luciferase and use thereof” (JNC CORPORATION, priority 2013, dated 2021).

The test is described as follows: Luminescence activity of KAZ mutants (pCold II, E. coli) in supernatant and precipitate of crude enzyme solution. Format: biochemical. To be noted: for Relative Luminescence Activity (Imax) Precipitate / Relative Luminescence Activity (Imax) Supernatant / Luminescence activity in the supernatants, fold higher as compared to the wild KAZ: pCold II; for Relative Luminescence Activity (Imax) Precipitate / Relative Luminescence Activity (Imax) Supernatant: E. coli BL21, 60 seconds; for Relative Luminescence Activity (Imax) Precipitate: 5 μL precipitate; for Relative Luminescence Activity (Imax) Supernatant: 5 μL supernatant; for Luminescence activity in the supernatants, fold higher as compared to the wild KAZ: supernatant, coelenterazine (Table 8).

B1: KAZ-A54I: KAZ with single amino acid substitution A54I, SEQ ID NO: 6 (protein)
chain: FTLADFVGDWQQTAGYNQDQVLEQGGLSSLFQALGVSVTPIQKVVLSGENGLKIDIHVIIPYEGLSGFQMGLIEMIFKVVYPVDDHHFKIILHYGTLVIDGVTPNMIDYFGRPYPGIAVFDGKQITVTGTLWNGNKIYDERLINPDGSLLFRVTINGVTGWRLCENILA
Take B1: the “Relative Luminescence Activity (Imax) Precipitate” value by setting is: (Table 3, 0.5 μg coelenterazine) 13; (Table 8, coelenterazine) 13. Also, the “Relative Luminescence Activity (Imax) Supernatant” value (Table 3, 0.5 μg coelenterazine) turned out to be 150 and the “Relative Luminescence Activity (Imax) Supernatant” value (Table 8, coelenterazine) is on record as 151. The “Luminescence activity relative to that of dnKAZ” value (pCold II crude enzyme solution, coelenterazine) was “approximately 1/12”.

B2: KAZ: wild 19 kDa catalytic protein of Oplophorus luciferase (19kOLase), amino acid sequence SEQ ID NO: 2 (protein, listed as Oplophorus gracilirostris)
chain: FTLADFVGDWQQTAGYNQDQVLEQGGLSSLFQALGVSVTPIQKVVLSGENGLKADIHVIIPYEGLSGFQMGLIEMIFKVVYPVDDHHFKIILHYGTLVIDGVTPNMIDYFGRPYPGIAVFDGKQITVTGTLWNGNKIYDERLINPDGSLLFRVTINGVTGWRLCENILA
For the molecule B2, where the note is “Table 3, 0.5 μg coelenterazine”, the “Relative Luminescence Activity (Imax) Precipitate” value is listed as 0.1 and the “Relative Luminescence Activity (Imax) Supernatant” value is on record as 1.0. Under “Table 8, coelenterazine”, the “Relative Luminescence Activity (Imax) Precipitate” value turned out to be 0.1 and the “Relative Luminescence Activity (Imax) Supernatant” value is 1.0.

B3: KAZ-V44I-A54I: KAZ mutant with two amino acid substitutions V44I and A54I, SEQ ID NO: 10 (protein)
chain: FTLADFVGDWQQTAGYNQDQVLEQGGLSSLFQALGVSVTPIQKIVLSGENGLKIDIHVIIPYEGLSGFQMGLIEMIFKVVYPVDDHHFKIILHYGTLVIDGVTPNMIDYFGRPYPGIAVFDGKQITVTGTLWNGNKIYDERLINPDGSLLFRVTINGVTGWRLCENILA
Take B3: the “Luminescence activity in the supernatants, fold higher as compared to the wild KAZ” value was 295 fold. Under “Table 8, coelenterazine”, the “Relative Luminescence Activity (Imax) Precipitate” value is 5.8 and the “Relative Luminescence Activity (Imax) Supernatant” value is listed as 295.

B4: KAZ-A54I-Y138I: KAZ mutant with two amino acid substitutions A54I and Y138I, SEQ ID NO: 14 (protein)
chain: FTLADFVGDWQQTAGYNQDQVLEQGGLSSLFQALGVSVTPIQKVVLSGENGLKIDIHVIIPYEGLSGFQMGLIEMIFKVVYPVDDHHFKIILHYGTLVIDGVTPNMIDYFGRPYPGIAVFDGKQITVTGTLWNGNKIIDERLINPDGSLLFRVTINGVTGWRLCENILA
As for B4, the “Luminescence activity in the supernatants, fold higher as compared to the wild KAZ” value is listed as 982 fold. Further, where the note is “Table 8, coelenterazine”, the “Relative Luminescence Activity (Imax) Precipitate” value is listed as 21 and the “Relative Luminescence Activity (Imax) Supernatant” value was found to be 982.

B5: KAZ-V44I-Y138I: KAZ mutant with two amino acid substitutions V44I and Y138I, SEQ ID NO: 12 (protein)
chain: FTLADFVGDWQQTAGYNQDQVLEQGGLSSLFQALGVSVTPIQKIVLSGENGLKADIHVIIPYEGLSGFQMGLIEMIFKVVYPVDDHHFKIILHYGTLVIDGVTPNMIDYFGRPYPGIAVFDGKQITVTGTLWNGNKIIDERLINPDGSLLFRVTINGVTGWRLCENILA
B5: the “Luminescence activity in the supernatants, fold higher as compared to the wild KAZ” value is given as 71 fold. Further, under “Table 8, coelenterazine”, the “Relative Luminescence Activity (Imax) Precipitate” value is recorded as 5.0 and the “Relative Luminescence Activity (Imax) Supernatant” value turned out to be 71.

B6: KAZ-V44I: KAZ with single amino acid substitution V44I, SEQ ID NO: 4 (protein)
chain: FTLADFVGDWQQTAGYNQDQVLEQGGLSSLFQALGVSVTPIQKIVLSGENGLKADIHVIIPYEGLSGFQMGLIEMIFKVVYPVDDHHFKIILHYGTLVIDGVTPNMIDYFGRPYPGIAVFDGKQITVTGTLWNGNKIYDERLINPDGSLLFRVTINGVTGWRLCENILA
Take B6: for the setting “Table 3, 0.5 μg coelenterazine”, the “Relative Luminescence Activity (Imax) Precipitate” value is 0.6 and the “Relative Luminescence Activity (Imax) Supernatant” value is reported as 6.5. Further, for the setting “Table 8, coelenterazine”, the “Relative Luminescence Activity (Imax) Precipitate” value was 0.6 and the “Relative Luminescence Activity (Imax) Supernatant” value worked out at 6.5.

B7: KAZ-Y138I: KAZ with single amino acid substitution Y138I, SEQ ID NO: 8 (protein)
chain: FTLADFVGDWQQTAGYNQDQVLEQGGLSSLFQALGVSVTPIQKVVLSGENGLKADIHVIIPYEGLSGFQMGLIEMIFKVVYPVDDHHFKIILHYGTLVIDGVTPNMIDYFGRPYPGIAVFDGKQITVTGTLWNGNKIIDERLINPDGSLLFRVTINGVTGWRLCENILA
Consider B7, for which the “Relative Luminescence Activity (Imax) Precipitate” value reads like this: (Table 3, 0.5 μg coelenterazine) 1.4; (Table 8, coelenterazine) 1.4. Moreover, the “Relative Luminescence Activity (Imax) Supernatant” value stood at 32 (Table 3, 0.5 μg coelenterazine) and 32 (Table 8, coelenterazine).

B8: KAZ-V44I-A54I-Y138I: KAZ mutant with three amino acid substitutions V44I, A54I and Y138I, SEQ ID NO: 16 (protein)
chain: FTLADFVGDWQQTAGYNQDQVLEQGGLSSLFQALGVSVTPIQKIVLSGENGLKIDIHVIIPYEGLSGFQMGLIEMIFKVVYPVDDHHFKIILHYGTLVIDGVTPNMIDYFGRPYPGIAVFDGKQITVTGTLWNGNKIIDERLINPDGSLLFRVTINGVTGWRLCENILA
Turning to B8, under “Table 8, coelenterazine”, the “Relative Luminescence Activity (Imax) Precipitate” value is given as 40 and the “Relative Luminescence Activity (Imax) Supernatant” value was 1,730.
